The supplement of paper PMC5998384

Experiments:
HeLa Kyoto [1] = experiment: solubility in G1/S (NP-40 vs SDS abundance) (log2 ratio); higher = more soluble; conditions: cell cycle stage: G1/S
HeLa Kyoto [2] = experiment: melting temperature (median over replicates), in situ; higher = more thermally stable
HeLa Kyoto [3] = experiment: solubility change mitosis vs G1/S (difference of NP-40 vs SDS log2 ratios) (log2 ratio difference); higher = more soluble in mitosis
HeLa Kyoto [4] = experiment: thermal stability score vs G1/S (z-score of summed log2 fold changes over temperatures); higher = more thermally stable than in G1/S
[5] = cell cycle stage: early G1 (4.5 h after nocodazole release)
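Wherever melting temperature (median over replicates), in situ is given: HeLa Kyoto cells synchronized by double thymidine or nocodazole block, proteins quantified by TMT10plex mass spectrometry, three independent biological replicates.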
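Wherever solubility change mitosis vs G1/S (difference of NP-40 vs SDS log2 ratios) is given: synchronized HeLa Kyoto cells (double thymidine block for G1/S, nocodazole release for mitosis), protein amounts in NP-40 versus SDS lysates quantified by mass spectrometry, three biological replicates.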
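Wherever solubility in G1/S (NP-40 vs SDS abundance) is given: HeLa Kyoto cells arrested at G1/S by double thymidine block, proteins quantified by TMT10plex mass spectrometry in mild NP-40 versus SDS extracts, three biological replicates.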
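Wherever thermal stability score vs G1/S (z-score of summed log2 fold changes over temperatures) is given: synchronized HeLa Kyoto cells, proteins quantified by TMT10plex mass spectrometry, three biological replicates, mitosis taken 0.5 h after nocodazole release, G1/S directly after double thymidine block.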

Sequence | solubility in G1/S (log2) (HeLa Kyoto [1]) | melting temperature (HeLa Kyoto [2]; cell cycle stage: G1/S) [°C] | melting temperature (HeLa Kyoto [2]; cell cycle stage: mitosis) [°C] | solubility change mitosis (log2) (HeLa Kyoto [3]) | thermal stability score (HeLa Kyoto [4]; [5]) | thermal stability score (HeLa Kyoto [4]; cell cycle stage: mitosis)
MSGDGATEQAAEYVPEKVKKAEKKLEENPYDLDAWSILIREAQNQPIDKARKTYERLVAQFPSSGRFWKLYIEAEIKAKNYDKVEKLFQRCLMKVLHIDLWKCYLSYVRETKGKLPSYKEKMAQAYDFALDKIGMEIMSYQIWVDYINFLKGVEAVGSYAENQRITAVRRVYQRGCVNPMINIEQLWRDYNKYEEGINIHLAKKMIEDRSRDYMNARRVAKEYETVMKGLDRNAPSVPPQNTPQEAQQVDMWKKYIQWEKSNPLRTEDQTLITKRVMFAYEQCLLVLGHHPDIWYEAAQYLEQSSKLLAEKGDMNNAKLFSDEAANIYERAISTLLKKNMLLYFAYADYEESRMKYEKVHSIYNRLLAIEDIDPTLVYIQYMKFARRAEGIKSGRMIFKKAREDTRTRHHVYVTAALMEYYCSKDKSVAFKIFELGLKKYGDIPEYVLAYIDYLSHLNEDNNTRVLFERVLTSGSLPPEKSGEIWARFLAFESNIGDLASILKVEKRRFTAFKEEYEGKETALLVDRYKFMDLYPCSASELKALGYKDVSRAKLAAIIPDPVVAPSIVPVLKDEVDRKPEYPKPDTQQMIPFQPRHLAPPGLHPVPGGVFPVPPAAVVLMKLLPPPICFQGPFVQVDELMEIFRRCKIPNTVEEAVRIITGGAPELAVEGNGPVESNAVLTKAVKRPNEDSDEDEEKGAVVPPVHDIYRARQQKRIR [CSTF3] | -0.0695 | 52 | 51.9 | -0.000668 | 0.26 | -0.413
MSWLFGINKGPKGEGAGPPPPLPPAQPGAEGGGDRGLGDRPAPKDKWSNFDPTGLERAAKAARELEHSRYAKDALNLAQMQEQTLQLEQQSKLKEYEAAVEQLKSEQIRAQAEERRKTLSEETRQHQARAQYQDKLARQRYEDQLKQQQLLNEENLRKQEESVQKQEAMRRATVEREMELRHKNEMLRVEAEARARAKAERENADIIREQIRLKAAEHRQTVLESIRTAGTLFGEGFRAFVTDWDKVTATVAGLTLLAVGVYSAKNATLVAGRFIEARLGKPSLVRETSRITVLEALRHPIQVSRRLLSRPQDALEGVVLSPSLEARVRDIAIATRNTKKNRSLYRNILMYGPPGTGKTLFAKKLALHSGMDYAIMTGGDVAPMGREGVTAMHKLFDWANTSRRGLLLFVDEADAFLRKRATEKISEDLRATLNAFLYRTGQHSNKFMLVLASNQPEQFDWAINDRINEMVHFDLPGQEERERLVRMYFDKYVLKPATEGKQRLKLAQFDYGRKCSEVARLTEGMSGREIAQLAVSWQATAYASEDGVLTEAMMDTRVQDAVQQHQQKMCWLKAEGPGRGDEPSPS [ATAD3A] | -0.0262 | 50.5 | 51 | -0.0269 | -0.608 | 0.271
MNLLPKSSREFGSVDYWEKFFQQRGKKAFEWYGTYLELCGVLHKYIKPREKVLVIGCGNSELSEQLYDVGYRDIVNIDISEVVIKQMKECNATRRPQMSFLKMDMTQMEFPDASFQVVLDKGTLDAVLTDEEEKTLQQVDRMLAEVGRVLQVGGRYLCISLAQAHILKKAVGHFSREGWMVRVHQVANSQDQVLEAEPQFSLPVFAFIMTKFRPVPGSALQIFELCAQEQRKPVRLESAERLAEAVQERQQYAWLCSQLRRKARLGSVSLDLCDGDTGEPRYTLHVVDSPTVKPSRDNHFAIFIIPQGRETEWLFGMDEGRKQLAASAGFRRLITVALHRGQQYESMDHIQAELSARVMELAPAGMPTQQQVPFLSVGGDIGVRTVQHQDCSPLSGDYVIEDVQGDDKRYFRRLIFLSNRNVVQSEARLLKDVSHKAQKKRKKDRKKQRPADAEDLPAAPGQSIDKSYLCCEHHKAMIAGLALLRNPELLLEIPLALLVVGLGGGSLPLFVHDHFPKSCIDAVEIDPSMLEVATQWFGFSQSDRMKVHIADGLDYIASLAGGGEARPCYDVIMFDVDSKDPTLGMSCPPPAFVEQSFLQKVKSILTPEGVFILNLVCRDLGLKDSVLAGLKAVFPLLYVRRIEGEVNEILFCQLHPEQKLATPELLETAQALERTLRKPGRGWDDTYVLSDMLKTVKIV [METTL13] | -0.167 | 49.3 | 48.9 | -0.0232 | 0.527 | 1.18
MPGPRRPAGSRLRLLLLLLLPPLLLLLRGSHAGNLTVAVVLPLANTSYPWSWARVGPAVELALAQVKARPDLLPGWTVRTVLGSSENALGVCSDTAAPLAAVDLKWEHNPAVFLGPGCVYAAAPVGRFTAHWRVPLLTAGAPALGFGVKDEYALTTRAGPSYAKLGDFVAALHRRLGWERQALMLYAYRPGDEEHCFFLVEGLFMRVRDRLNITVDHLEFAEDDLSHYTRLLRTMPRKGRVIYICSSPDAFRTLMLLALEAGLCGEDYVFFHLDIFGQSLQGGQGPAPRRPWERGDGQDVSARQAFQAAKIITYKDPDNPEYLEFLKQLKHLAYEQFNFTMEDGLVNTIPASFHDGLLLYIQAVTETLAHGGTVTDGENITQRMWNRSFQGVTGYLKIDSSGDRETDFSLWDMDPENGAFRVVLNYNGTSQELVAVSGRKLNWPLGYPPPDIPKCGFDNEDPACNQDHLSTLEVLALVGSLSLLGILIVSFFIYRKMQLEKELASELWRVRWEDVEPSSLERHLRSAGSRLTLSGRGSNYGSLLTTEGQFQVFAKTAYYKGNLVAVKRVNRKRIELTRKVLFELKHMRDVQNEHLTRFVGACTDPPNICILTEYCPRGSLQDILENESITLDWMFRYSLTNDIVKGMLFLHNGAICSHGNLKSSNCVVDGRFVLKITDYGLESFRDLDPEQGHTVYAKKLWTAPELLRMASPPVRGSQAGDVYSFGIILQEIALRSGVFHVEGLDLSPKEIIERVTRGEQPPFRPSLALQSHLEELGLLMQRCWAEDPQERPPFQQIRLTLRKFNRENSSNILDNLLSRMEQYANNLEELVEERTQAYLEEKRKAEALLYQILPHSVAEQLKRGETVQAEAFDSVTIYFSDIVGFTALSAESTPMQVVTLLNDLYTCFDAVIDNFDVYKVETIGDAYMVVSGLPVRNGRLHACEVARMALALLDAVRSFRIRHRPQEQLRLRIGIHTGPVCAGVVGLKMPRYCLFGDTVNTASRMESNGEALKIHLSSETKAVLEEFGGFELELRGDVEMKGKGKVRTYWLLGERGSSTRG [NPR1] | 0.0297 | 52.4 | 51.4 | -0.0544 | 0.231 | -0.0841
MEKLHQCYWKSGEPQSDDIEASRMKRAAAKHLIERYYHQLTEGCGNEACTNEFCASCPTFLRMDNNAAAIKALELYKINAKLCDPHPSKKGASSAYLENSKGAPNNSCSEIKMNKKGARIDFKDVTYLTEEKVYEILELCREREDYSPLIRVIGRVFSSAEALVQSFRKVKQHTKEELKSLQAKDEDKDEDEKEKAACSAAAMEEDSEASSSRIGDSSQGDNNLQKLGPDDVSVDIDAIRRVYTRLLSNEKIETAFLNALVYLSPNVECDLTYHNVYSRDPNYLNLFIIVMENRNLHSPEYLEMALPLFCKAMSKLPLAAQGKLIRLWSKYNADQIRRMMETFQQLITYKVISNEFNSRNLVNDDDAIVAASKCLKMVYYANVVGGEVDTNHNEEDDEEPIPESSELTLQELLGEERRNKKGPRVDPLETELGVKTLDCRKPLIPFEEFINEPLNEVLEMDKDYTFFKVETENKFSFMTCPFILNAVTKNLGLYYDNRIRMYSERRITVLYSLVQGQQLNPYLRLKVRRDHIIDDALVRLEMIAMENPADLKKQLYVEFEGEQGVDEGGVSKEFFQLVVEEIFNPDIGMFTYDESTKLFWFNPSSFETEGQFTLIGIVLGLAIYNNCILDVHFPMVVYRKLMGKKGTFRDLGDSHPVLYQSLKDLLEYEGNVEDDMMITFQISQTDLFGNPMMYDLKENGDKIPITNENRKEFVNLYSDYILNKSVEKQFKAFRRGFHMVTNESPLKYLFRPEEIELLICGSRNLDFQALEETTEYDGGYTRDSVLIREFWEIVHSFTDEQKRLFLQFTTGTDRAPVGGLGKLKMIIAKNGPDTERLPTSHTCFNVLLLPEYSSKEKLKERLLKAITYAKGFGML [UBE3A] | -0.0632 | 52.8 | 52 | -0.175 | -0.231 | -0.936
MPNWGGGKKCGVCQKTVYFAEEVQCEGNSFHKSCFLCMVCKKNLDSTTVAVHGEEIYCKSCYGKKYGPKGYGYGQGAGTLSTDKGESLGIKHEEAPGHRPTTNPNASKFAQKIGGSERCPRCSQAVYAAEKVIGAGKSWHKACFRCAKCGKGLESTTLADKDGEIYCKGCYAKNFGPKGFGFGQGAGALVHSE [CSRP1] | -0.0793 | 60.2 | – | -0.142 | -1.5 | -2.91
MWAVLRLALRPCARASPAGPRAYHGDSVASLGTQPDLGSALYQENYKQMKALVNQLHERVEHIKLGGGEKARALHISRGKLLPRERIDNLIDPGSPFLELSQFAGYQLYDNEEVPGGGIITGIGRVSGVECMIIANDATVKGGAYYPVTVKKQLRAQEIAMQNRLPCIYLVDSGGAYLPRQADVFPDRDHFGRTFYNQAIMSSKNIAQIAVVMGSCTAGGAYVPAMADENIIVRKQGTIFLAGPPLVKAATGEEVSAEDLGGADLHCRKSGVSDHWALDDHHALHLTRKVVRNLNYQKKLDVTIEPSEEPLFPADELYGIVGANLKRSFDVREVIARIVDGSRFTEFKAFYGDTLVTGFARIFGYPVGIVGNNGVLFSESAKKGTHFVQLCCQRNIPLLFLQNITGFMVGREYEAEGIAKDGAKMVAAVACAQVPKITLIIGGSYGAGNYGMCGRAYSPRFLYIWPNARISVMGGEQAANVLATITKDQRAREGKQFSSADEAALKEPIIKKFEEEGNPYYSSARVWDDGIIDPADTRLVLGLSFSAALNAPIEKTDFGIFRM [MCCC2] | 0.0208 | 53.2 | 53.7 | -0.128 | -3.15 | -2.72
MKAVVQRVTRASVTVGGEQISAIGRGICVLLGISLEDTQKELEHMVRKILNLRVFEDESGKHWSKSVMDKQYEILCVSQFTLQCVLKGNKPDFHLAMPTEQAEGFYNSFLEQLRKTYRPELIKDGKFGAYMQVHIQNDGPVTIELESPAPGTATSDPKQLSKLEKQQQRKEKTRAKGPSESSKERNTPRKEDRSASSGAEGDVSSEREP [DTD1] | 0.119 | 58.3 | 57.5 | 0.00349 | 2.15 | 0.509
MSSFGAGKTKEVIFSVEDGSVKMFLRGRPVPMMIPDELAPTYSLDTRSELPSCRLKLEWVYGYRGRDCRANLYLLPTGEIVYFVASVAVLYSVEEQRQRHYLGHNDDIKCLAIHPDMVTIATGQVAGTTKEGKPLPPHVRIWDSVSLSTLHVLGLGVFDRAVCCVGFSKSNGGNLLCAVDESNDHMLSVWDWAKETKVVDVKCSNEAVLVATFHPTDPTVLITCGKSHIYFWTLEGGSLSKRQGLFEKHEKPKYVLCVTFLEGGDVVTGDSGGNLYVWGKGGNRITQAVLGAHDGGVFGLCALRDGTLVSGGGRDRRVVLWGSDYSKLQEVEVPEDFGPVRTVAEGHGDTLYVGTTRNSILQGSVHTGFSLLVQGHVEELWGLATHPSRAQFVTCGQDKLVHLWSSDSHQPLWSRIIEDPARSAGFHPSGSVLAVGTVTGRWLLLDTETHDLVAIHTDGNEQISVVSFSPDGAYLAVGSHDNLVYVYTVDQGGRKVSRLGKCSGHSSFITHLDWAQDSSCFVTNSGDYEILYWDPATCKQITSADAVRNMEWATATCVLGFGVFGIWSEGADGTDINAVARSHDGKLLASADDFGKVHLFSYPCCQPRALSHKYGGHSSHVTNVAFLWDDSMALTTGGKDTSVLQWRVV [EML2] | -0.16 | 53.1 | 53.4 | -0.207 | -0.964 | -1.37
